Test results published in patent JP2011115175A.
Values belong to the molecule of their own block, whether it stands above or below them.

Assays:
[1] = target: ニワトリリゾチーム (chicken lysozyme) (chicken) (UniProt P00698); assay: fluorescence quench titration; 200 nM Fab titrated with lysozyme in solution
[2] = target: ニワトリリゾチーム (chicken lysozyme) (chicken) (UniProt P00698); assay: legend of Figure 7 (antigen binding graph, fluorescence quench titration)
CD28Ig (human) [3] = target: CD28Ig (human) (UniProt P10747); assay: ELISA on CD28Ig-coated plates, detected with anti-human kappa conjugate
[4] = target: ヒトグルタミン酸デカルボキシラーゼ65kDaアイソフォーム (human glutamic acid decarboxylase, GAD65) (human) (UniProt Q05329); assay: immunoprecipitation of 35S-labelled GAD65 with Protein G-Sepharose; midpoint read by eye
Chain of UniProt Q05329 (Q05329 whole entry): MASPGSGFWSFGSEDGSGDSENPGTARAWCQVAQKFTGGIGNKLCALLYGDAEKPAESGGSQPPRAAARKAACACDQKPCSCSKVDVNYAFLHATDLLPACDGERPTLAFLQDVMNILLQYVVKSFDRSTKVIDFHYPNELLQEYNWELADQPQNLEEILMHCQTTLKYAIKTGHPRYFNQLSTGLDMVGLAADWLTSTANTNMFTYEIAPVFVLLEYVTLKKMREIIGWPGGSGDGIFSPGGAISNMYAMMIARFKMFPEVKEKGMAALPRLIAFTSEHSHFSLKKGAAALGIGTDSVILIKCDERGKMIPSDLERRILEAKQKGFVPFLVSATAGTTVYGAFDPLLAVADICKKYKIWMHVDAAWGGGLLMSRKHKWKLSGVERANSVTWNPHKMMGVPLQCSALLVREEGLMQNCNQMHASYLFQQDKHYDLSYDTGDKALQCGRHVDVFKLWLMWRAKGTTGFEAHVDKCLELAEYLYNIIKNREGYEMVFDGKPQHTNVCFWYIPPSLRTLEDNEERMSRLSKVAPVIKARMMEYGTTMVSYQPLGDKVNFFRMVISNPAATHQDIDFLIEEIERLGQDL

CD28Ig (human) [5] = target: CD28Ig (human) (UniProt P10747); assay: legend of Figure 11 (antigen binding graph, ELISA)

Chain of UniProt P00698 (P00698 19-147 limits assumed): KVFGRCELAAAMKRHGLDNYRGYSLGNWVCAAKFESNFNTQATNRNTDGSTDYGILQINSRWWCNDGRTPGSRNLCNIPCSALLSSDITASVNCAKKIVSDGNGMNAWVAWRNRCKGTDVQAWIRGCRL

Molecule: マウス9.3 Fab (Fab of mouse 9.3 variable domains and human constant domains)
EC50 (CD28Ig (human) [3]): 20 nM

B2: ヒト化抗ヒトCD28(Hu9.3)Fabフラグメント (Fab, from another filing, V domains shown)
VH: EVQLVQSGGGLVQPGGSLRLSCAGSGFTFSDYGVHWVRQAPGKGLEWVSAIWAGGGTNYASSVMGRFTISRDNAKNSLYLQMNSLRAEDMAVYYCARDKGYSYYYSMDYWGQGTLVTVSS
VL: DIVMTQSPDSLAVSLGERATINCRASESVEYYVTSLMAWYQQKPGQPPKLLIYAASNVESGVPDRFSGSGSGTNFSLTISSLQAEDVAVYYCQQSRKVPYTFGQGTKLEIKR
EC50 (CD28Ig (human) [3]): 630 nM | Ka (CD28Ig (human) [5]): > 1e+06 M⁻¹

The remaining lines, values ahead:

Kd [1]: 23 nM | Ka [2]: > 1e+08 M⁻¹
Molecule: ヒト化D1.3 Fab (humanized D1.3 Fab, anti-chicken lysozyme)

EC50 [4]: 0.00036 nM
B1: マウスNGAD65 Fabフラグメント (mouse NGAD65 variable domains and constant domains) (Fab, from another filing, V domains shown)
VH: QVQLQQPGAELVKPGASVKMSCKASGYRFSSYNMHWVKQTPGQGLEWIGAIYPRSGDTSYNQKFKGKATLTADKSSSTAYMQLGSLTSEDSAVYYCVRSYDYDAPFAFWGQGTLVTVSA
VL: VLTQTPLSLPVSLGDQASISCRSSQSLEHNNGNTYLNWYLQKPGQSPQLLIYRVSNRFSGGLDRFSGSGSGTDFTLKISRVEAEDLGVYFCLQVTHVPFTFGSGTKLEIKR
